According to US20180009899A1 (CORVUS PHARMACEUTICALS, published 2018):

T1: Cellular CD73 on MDA-MB-231 human breast cancer cells (human, UniProt P21589 27-549)
T1 construct: whole, on cells; Endogenous CD73 on MDA-MB-231 cells; also called 5'-nucleotidase; ecto-5'-nucleotidase
T1 sequence (looked up): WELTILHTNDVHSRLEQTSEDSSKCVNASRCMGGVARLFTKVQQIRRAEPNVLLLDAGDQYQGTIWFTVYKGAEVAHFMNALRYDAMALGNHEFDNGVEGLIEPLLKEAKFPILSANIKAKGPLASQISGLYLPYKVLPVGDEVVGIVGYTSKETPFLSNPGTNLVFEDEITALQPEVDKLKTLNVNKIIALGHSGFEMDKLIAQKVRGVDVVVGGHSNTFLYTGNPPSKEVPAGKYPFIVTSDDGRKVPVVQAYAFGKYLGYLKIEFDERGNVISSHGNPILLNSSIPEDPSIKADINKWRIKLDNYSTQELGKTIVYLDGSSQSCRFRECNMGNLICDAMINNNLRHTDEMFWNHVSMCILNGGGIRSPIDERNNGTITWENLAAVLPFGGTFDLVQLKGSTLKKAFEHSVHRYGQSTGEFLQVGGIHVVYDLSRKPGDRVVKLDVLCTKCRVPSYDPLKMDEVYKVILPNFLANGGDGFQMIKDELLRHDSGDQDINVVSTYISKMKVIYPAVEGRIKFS

B1: CPX-006 (glycosylated) (antibody, human IgG1, kappa, N297Q, V domains shown)
VH: QVQLVQSGAEVEKPGASVKVSCKASGYTFTSYWITWVRQAPGQGLEWMGDIYPGSGNTNYNEKFKTRVTITADKSTSTAYMELSSLRSEDTAVYYCAKEGGLTTEDYALDYWGQGTLVTVSS
VL: EIVLTQSPATLSLSPGERATLSCRASKNVSTSGYSYMHWYQQKPGQAPRLLIYLASNLESGIPPRFSGSGYGTDFTLTINNIESEDAAYYFCQHSRELPFTFGQGTKVEIKR
modifications: N-linked glycosylation on CDR L1 (NXS motif at Kabat 27A-27C)
notes: Humanized anti-CD73 antibody with the CDRs of mouse 1E9; also called BAP094-hum07; glycosylated antibody
B2: CPX-008 (antibody, V domains shown)
VH: QVQLVQSGAEVEKPGASVKVSCKASGYTFTSYWITWVRQAPGQGLEWMGDIYPGSGNTNYNEKFKTRVTITADKSTSTAYMELSSLRSEDTAVYYCAKEGGLTTEDYALDYWGQGTLVTV
VL: EIVLTQSPATLSLSPGERATLSCRASKQVSTSGYSYMHWYQQKPGQAPRLLIYLASNLESGIPPRFSGSGYGTDFTLTINNIESEDAAYYFCQHSRELPFTFGQGTKVEIK
notes: also called aglycosylated antibody
B3: CPX-012 (antibody, V domains shown)
VH: QVQLVQSGAEVEKPGASVKVSCKASGYTFTSYWITWVRQAPGQGLEWMGDIYPGSGNTNYNEKFKTRVTITADKSTSTAYMELSSLRSEDTAVYYCAKEGGLTTEDYALDYWGQGTLVTV
VL: AIQLTQSPSSLSASVGDRVTITCRASKQVSTSGYSYMHWYQQKPGQAPRLLIYLASNLESGVPSRFSGSGSGTDFTFTISSLEAEDAATYYCQHSRELPFTFGQGTKVEIK
B4: CPX-011 (antibody, V domains shown)
VH: QVQLVQSGAEVEKPGASVKVSCKASGYTFTSYWITWVRQAPGQGLEWMGDIYPGSGNTNYNEKFKTRVTITADKSTSTAYMELSSLRSEDTAVYYCAKEGGLTTEDYALDYWGQGTLVTV
VL: EIVLTQSPATLSLSPGERATLSCRASKNVATSGYSYMHWYQQKPGQAPRLLIYLASNLESGIPPRFSGSGYGTDFTLTINNIESEDAAYYFCQHSRELPFTFGQGTKVEIK
notes: A at Kabat 27C of CDR L1, made in the CPX-006 light chain
B5: CPX-009 (antibody, V domains shown)
VH: QVQLVQSGAEVEKPGASVKVSCKASGYTFTSYWITWVRQAPGQGLEWMGDIYPGSGNTNYNEKFKTRVTITADKSTSTAYMELSSLRSEDTAVYYCAKEGGLTTEDYALDYWGQGTLVTV
VL: EIVLTQSPATLSLSPGERATLSCRASKAVSTSGYSYMHWYQQKPGQAPRLLIYLASNLESGIPPRFSGSGYGTDFTLTINNIESEDAAYYFCQHSRELPFTFGQGTKVEIK
notes: A at Kabat 27A of CDR L1, made in the CPX-006 light chain
B6: CPX-014 (antibody, V domains shown)
VH: QVQLVQSGAEVEKPGASVKVSCKASGYTFTSYWITWVRQAPGQGLEWMGDIYPGSGNTNYNEKFKTRVTITADKSTSTAYMELSSLRSEDTAVYYCAKEGGLTTEDYALDYWGQGTLVTV
VL: EIVLTQSPATLSLSPGERATLSCRASKDVSTSGYSYMHWYQQKPGQAPRLLIYLASNLESGIPPRFSGSGYGTDFTLTINNIESEDAAYYFCQHSRELPFTFGQGTKVEIK
notes: D at Kabat 27A of CDR L1, made in the CPX-006 light chain

molecular target: T1, Cellular CD73 on MDA-MB-231 human …; assay: flow cytometry on MDA-MB-231 cells, PE anti-human secondary

Does B1 bind?
Result: binds

Does B2 bind?
Result: binds

Does B3 bind?
Result: binds

Does B4 bind?
Result: binds

Does B5 bind?
Result: binds

Does B6 bind?
Result: binds
